This is an account of results in patent US20240092836A1.

This test deals with Recombinant Human CTLA4-Fc chimera (R&D systems) (human) (UniProt P16410). Briefly: ELISA, signal over SA. (ELISA stands for enzyme-linked immunosorbent assay.)
With GGCRHPFLPIFSKHFCEL (peptide, not shown: large carriers; small tags and cut ends) [C4m3127-4th-NNS6-83], the ELISA S/N(SA) is 20.7.

For the molecule GGCLHPFLPIRSVHFCPF (peptide, not shown: large carriers; small tags and cut ends) [C4m#19-5th4w-NN6-15], the ELISA S/N(SA) is 39.9.

Take GGCQHPYLPIWSFHFCPF (peptide, not shown: large carriers; small tags and cut ends) [C4m#19-5th4w-NN6-62]: the ELISA S/N(SA) was 17.2.

On to GGCWHPWLPIYSHHFCPI (peptide, not shown: large carriers; small tags and cut ends) [C4m#19-5th4w-NN6-24], for which the ELISA S/N(SA) was 27.6.

GGCPHPFLPIWSVHFCPF (peptide, not shown: large carriers; small tags and cut ends) [C4m#19-5th4w-NN6-32]: the ELISA S/N(SA) amounted to 27.2.

With GGCVHPSLPILSVHFCPR (peptide, not shown: large carriers; small tags and cut ends) [C4m#19-5th4w-NN6-55-4], the ELISA S/N(SA) was 29.5.

Turning to GGCLHPGLPIRSLHFCPR (peptide, not shown: large carriers; small tags and cut ends) [C4m#19-5th4w-NN6-54], the ELISA S/N(SA) turned out to be 33.3.

In the case of GGCPHPWLPIASVHFCPF (peptide, not shown: large carriers; small tags and cut ends) [C4m#19-5th4w-NN6-71], the ELISA S/N(SA) was 17.4.

Turning to GGCRHPWLPIVSYHFCSS (peptide, not shown: large carriers; small tags and cut ends) [C4m#19-5th4w-NN6-90], the ELISA S/N(SA) amounted to 21.2.

Consider GGCKHPFLPISSHHFCPY (peptide, not shown: large carriers; small tags and cut ends) [C4m#19-5th2w-NNS6-25], for which the ELISA S/N(SA) worked out at 21.1.

For GGCLHPFLPIFSSHFCAL (peptide, not shown: large carriers; small tags and cut ends) [C4m3127-4th-NNS6-28], the ELISA S/N(SA) amounted to 23.2.

GGCLHPHLPIWSLHFCPL (peptide, not shown: large carriers; small tags and cut ends) [C4m#19-5th4w-NN6-59]: the ELISA S/N(SA) was 27.6.

On to GGCRHPFLPIVSFHFCPF (peptide, not shown: large carriers; small tags and cut ends) [C4m#19-5th2w-NNS6-90], for which the ELISA S/N(SA) is 19.7.

GGCFHPYLPIRSWHFCSR (peptide, not shown: large carriers; small tags and cut ends) [C4m#19-5th4w-NN6-81]: the ELISA S/N(SA) was 32.3.

For GGCMHPFLPIRSMHFCPL (peptide, not shown: large carriers; small tags and cut ends) [C4m#19-5th4w-NN6-70], the ELISA S/N(SA) is 35.5.

Regarding GGCVHPYLPISSIHFCSM (peptide, not shown: large carriers; small tags and cut ends) [C4m3127-4th-NNS6-72], the ELISA S/N(SA) turned out to be 20.

In the case of GGCWHPFLPIRSLHFCPR (peptide, not shown: large carriers; small tags and cut ends) [C4m#19-5th4w-NN6-39], the ELISA S/N(SA) turned out to be 35.6.

As for GGCFHPYLPIRSWHFCGR (peptide, not shown: large carriers; small tags and cut ends) [C4m#19-5th4w-NN6-9], the ELISA S/N(SA) turned out to be 28.8.

For GGCWHPYLPIVSWHFCSR (peptide, not shown: large carriers; small tags and cut ends) [C4m#19-5th4w-NN6-51], the ELISA S/N(SA) amounted to 22.1.

For GGCLHPWLPIRSRHFCSR (peptide, not shown: large carriers; small tags and cut ends) [C4m#19-5th4w-NN6-68], the ELISA S/N(SA) was determined as 24.7.

On to GGCWHPVLPIRSCHFCAV (peptide, not shown: large carriers; small tags and cut ends) [C4m#19-5th4w-NN6-79], for which the ELISA S/N(SA) is 24.9.

Regarding GGCWHPWLPILSPHFCPR (peptide, not shown: large carriers; small tags and cut ends) [C4m#19-5th4w-NN6-21], the ELISA S/N(SA) is 37.5.

In the case of GGCFHPFLPIRSDHFCSR (peptide, not shown: large carriers; small tags and cut ends) [C4m#19-5th4w-NN6-34], the ELISA S/N(SA) was 32.2.

Regarding GGCWHPHLPIVSSHFCLF (peptide, not shown: large carriers; small tags and cut ends) [C4m#19-5th4w-NN6-2], the ELISA S/N(SA) came out at 18.4.

As for GGCLHPFLPISSWHFCGR (peptide, not shown: large carriers; small tags and cut ends) [C4m#19-5th4w-NN6-37], the ELISA S/N(SA) turned out to be 22.7.

With GGCWHPFLPIRSYHFCPW (peptide, not shown: large carriers; small tags and cut ends) [C4m#19-5th2w-NNS6-14], the ELISA S/N(SA) worked out at 34.7.

GGCRHPYLPIWSIHFCQK (peptide, not shown: large carriers; small tags and cut ends) [C4m#19-5th4w-NN6-19]: the ELISA S/N(SA) was determined as 29.7.

In the case of GGCRHPFLPIYSVHFCAC (peptide, not shown: large carriers; small tags and cut ends) [C4m#19-5th4w-NN6-53], the ELISA S/N(SA) came to 32.2.

For GGCLHPFLPIRSVHFCPR (peptide, not shown: large carriers; small tags and cut ends) [C4m#19-5th4w-NN6-67], the ELISA S/N(SA) is 45.4.

With GGCRHPYLPIVSRHFCPF (peptide, not shown: large carriers; small tags and cut ends) [C4m#19-5th4w-NN6-4], the ELISA S/N(SA) was determined as 31.6.

Take GGCKHPVLPIVSLHFCPW (peptide, not shown: large carriers; small tags and cut ends) [C4m3127-4th-NNS6-90]: the ELISA S/N(SA) was determined as 22.9.

For the molecule GGCWHPFLPIQSLHFCGV (peptide, not shown: large carriers; small tags and cut ends) [C4m#19-5th4w-NN6-56], the ELISA S/N(SA) was determined as 27.1.

Take GGCFHPYLPISSVHFCGR (peptide, not shown: large carriers; small tags and cut ends) [C4m#19-5th2w-NNS6-94]: the ELISA S/N(SA) was 22.4.

GGCWHPYLPIRSVHFCGR (peptide, not shown: large carriers; small tags and cut ends) [C4m#19-5th2w-NNS6-12]: the ELISA S/N(SA) came to 20.4.

On to GGCWHPFLPIRSSHFCPS (peptide, not shown: large carriers; small tags and cut ends) [C4m#19-5th2w-NNS6-21], for which the ELISA S/N(SA) is 31.1.

On to GGCMHPYLPIVSVHFCPC (peptide, not shown: large carriers; small tags and cut ends) [C4m#19-5th4w-NN6-57], for which the ELISA S/N(SA) was 27.7.

For the molecule GGCVHPFLPIRSVHFCAL (peptide, not shown: large carriers; small tags and cut ends) [C4m#19-5th4w-NN6-92-1], the ELISA S/N(SA) was determined as 30.

Regarding GGCFHPFLPIRSLHFCCR (peptide, not shown: large carriers; small tags and cut ends) [C4m#19-5th4w-NN6-82], the ELISA S/N(SA) worked out at 28.3.

Regarding GGCPHPWLPIFSRHFCPV (peptide, not shown: large carriers; small tags and cut ends) [C4m#19-5th4w-NN6-47], the ELISA S/N(SA) came out at 34.2.

On to GGCLHPVLPIRSRHFCPV (peptide, not shown: large carriers; small tags and cut ends) [C4m#19-5th4w-NN6-25], for which the ELISA S/N(SA) amounted to 38.9.

In the case of GGCAHPVLPIRSLHFCPH (peptide, not shown: large carriers; small tags and cut ends) [C4m#19-5th4w-NN6-86], the ELISA S/N(SA) is 19.7.

GGCWHPFLPISSPHFCGR (peptide, not shown: large carriers; small tags and cut ends) [C4m#19-5th4w-NN6-65-1]: the ELISA S/N(SA) amounted to 29.5.

Take GGCRHPHLPIWSWHFCGR (peptide, not shown: large carriers; small tags and cut ends) [C4m#19-5th4w-NN6-23]: the ELISA S/N(SA) turned out to be 30.2.

Turning to GGCRHPFLPIWSWHFCPF (peptide, not shown: large carriers; small tags and cut ends) [C4m#19-5th4w-NN6-7], the ELISA S/N(SA) amounted to 23.

Turning to GGCWHPFLPIFSVHFCGC (peptide, not shown: large carriers; small tags and cut ends) [C4m#19-5th4w-NN6-85], the ELISA S/N(SA) was determined as 22.9.

On to GGCLHPVLPIRSFHFCWR (peptide, not shown: large carriers; small tags and cut ends) [C4m#19-5th4w-NN6-87], for which the ELISA S/N(SA) came to 21.4.

Turning to GGCRHPFLPIWSHHFCVC (peptide, not shown: large carriers; small tags and cut ends) [C4m#19-5th4w-NN6-11], the ELISA S/N(SA) stood at 22.1.

For GGCRHPFLPIVSWHFCGR (peptide, not shown: large carriers; small tags and cut ends) [C4m#19-5th4w-NN6-44], the ELISA S/N(SA) amounted to 30.1.

As to GGCMHPFLPIQSVHFCSR (peptide, not shown: large carriers; small tags and cut ends) [C4m#19-5th2w-NNS6-22], the ELISA S/N(SA) came to 29.3.

As for GGCQHPWLPISSWHFCPR (peptide, not shown: large carriers; small tags and cut ends) [C4m#19-5th2w-NNS6-67], the ELISA S/N(SA) was 25.5.

As to GGCRHPYLPIASPHFCPG (peptide, not shown: large carriers; small tags and cut ends) [C4n#19-5th2w-NNS6-71], the ELISA S/N(SA) was found to be 22.9.

As to GGCKHPVLPIWSWHFCRI (peptide, not shown: large carriers; small tags and cut ends) [C4m#19-5th4w-NN6-50], the ELISA S/N(SA) amounted to 28.1.

Take GGCWHPALPIRSWHFCPR (peptide, not shown: large carriers; small tags and cut ends) [C4m#19-5th4w-NN6-78]: the ELISA S/N(SA) came out at 27.9.

For the molecule GGCRHPFLPIVSTHFCSR (peptide, not shown: large carriers; small tags and cut ends) [C4m#19-5th4w-NN6-77], the ELISA S/N(SA) came to 30.5.

For the molecule GGCCHPWLPIVSTHFCGL (peptide, not shown: large carriers; small tags and cut ends) [C4m#19-5th4w-NN6-93], the ELISA S/N(SA) worked out at 28.9.

Regarding GGCRHPWLPIVSWHFCSR (peptide, not shown: large carriers; small tags and cut ends) [C4m3127-4th-NNS6-87], the ELISA S/N(SA) stood at 21.4.

Turning to GGCSHPFLPILSVHFCPF (peptide, not shown: large carriers; small tags and cut ends) [C4m#19-5th4w-NN6-69-1], the ELISA S/N(SA) came to 24.9.

GGCLHPWLPIVSVHFCAR (peptide, not shown: large carriers; small tags and cut ends) [C4m#19-5th4w-NN6-69-3]: the ELISA S/N(SA) is 24.9.

With GGCRHPFLPISSIHFCCI (peptide, not shown: large carriers; small tags and cut ends) [C4m#19-5th4w-NN6-58], the ELISA S/N(SA) is 18.7.

On to GGCLHPFLPIRSVHFCGC (peptide, not shown: large carriers; small tags and cut ends) [C4m#19-5th4w-NN6-52], for which the ELISA S/N(SA) was found to be 28.6.

On to GGCMHPYLPIKSVHFCPL (peptide, not shown: large carriers; small tags and cut ends) [C4m#19-5th2w-NNS6-55], for which the ELISA S/N(SA) was determined as 28.3.

As for GGCAHPFLPIFSPHFCPF (peptide, not shown: large carriers; small tags and cut ends) [C4m#19-5th2w-NNS6-3], the ELISA S/N(SA) amounted to 18.4.

Consider GGCSHPQLPILSDHFCSA (peptide, not shown: large carriers; small tags and cut ends) [C4m#19-5th4w-NN6-20], for which the ELISA S/N(SA) came out at 30.6.

For GGCRHPVLPIVSLHFCPG (peptide, not shown: large carriers; small tags and cut ends) [C4m3127-4th-NNS6-17], the ELISA S/N(SA) amounted to 20.4.
